Test results taken from US20050282743A1, “Molecular interactions in cells” (Arbor Vita Corporation, priority 2001, published 2005).
Ends that are not written are not given here. Peptide text beside a SMILES is read from it. * marks the point of attachment. Biotin = O=C1N[C@H]2[C@H](CS[C@H]2CCCCC(=O)*)N1

How the values were obtained:
Assay in all cases: G' assay (10 uM PL peptide), results of TABLE 7 and TABLE 12
Assay type in all cases: binding
[1] = target: T1, PDZ protein (GST-PDZ fusion) (Homo sapiens, UniProt O14907); details: PDZ TIP1, PDZ Domain 1
T1 construct: made in house; host or cells: E. coli (DH5alpha, BL21 or JM109)
T1 sequence (O14907 1-124): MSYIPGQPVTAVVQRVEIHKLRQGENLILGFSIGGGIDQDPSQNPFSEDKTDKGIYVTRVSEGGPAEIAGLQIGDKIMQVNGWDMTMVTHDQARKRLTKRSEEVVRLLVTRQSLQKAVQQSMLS
In short: (§1)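 Binding classes derive from A450 nm of bound biotin-tagged PL peptide. A score of 5 needs A450 above 4 in more than two repeats.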

[2] = target: T2, PDZ protein (GST-PDZ fusion) (Homo sapiens, UniProt P57105); details: PDZ Outer Membrane, PDZ Domain 1
T2 construct: made in house; host or cells: E. coli (DH5alpha, BL21 or JM109)
T2 sequence (P57105 1-145): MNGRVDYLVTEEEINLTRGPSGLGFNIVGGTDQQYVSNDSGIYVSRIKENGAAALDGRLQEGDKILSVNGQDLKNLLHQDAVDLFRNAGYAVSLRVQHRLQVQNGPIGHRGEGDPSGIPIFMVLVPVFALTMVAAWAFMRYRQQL
In short: as §1

[3] = target: T3, PDZ protein (GST-PDZ fusion) (Homo sapiens, UniProt O15018)
T3 construct: made in house; host or cells: E. coli (DH5alpha, BL21 or JM109)
T3 sequence (O15018 whole entry, the tested form may be a part): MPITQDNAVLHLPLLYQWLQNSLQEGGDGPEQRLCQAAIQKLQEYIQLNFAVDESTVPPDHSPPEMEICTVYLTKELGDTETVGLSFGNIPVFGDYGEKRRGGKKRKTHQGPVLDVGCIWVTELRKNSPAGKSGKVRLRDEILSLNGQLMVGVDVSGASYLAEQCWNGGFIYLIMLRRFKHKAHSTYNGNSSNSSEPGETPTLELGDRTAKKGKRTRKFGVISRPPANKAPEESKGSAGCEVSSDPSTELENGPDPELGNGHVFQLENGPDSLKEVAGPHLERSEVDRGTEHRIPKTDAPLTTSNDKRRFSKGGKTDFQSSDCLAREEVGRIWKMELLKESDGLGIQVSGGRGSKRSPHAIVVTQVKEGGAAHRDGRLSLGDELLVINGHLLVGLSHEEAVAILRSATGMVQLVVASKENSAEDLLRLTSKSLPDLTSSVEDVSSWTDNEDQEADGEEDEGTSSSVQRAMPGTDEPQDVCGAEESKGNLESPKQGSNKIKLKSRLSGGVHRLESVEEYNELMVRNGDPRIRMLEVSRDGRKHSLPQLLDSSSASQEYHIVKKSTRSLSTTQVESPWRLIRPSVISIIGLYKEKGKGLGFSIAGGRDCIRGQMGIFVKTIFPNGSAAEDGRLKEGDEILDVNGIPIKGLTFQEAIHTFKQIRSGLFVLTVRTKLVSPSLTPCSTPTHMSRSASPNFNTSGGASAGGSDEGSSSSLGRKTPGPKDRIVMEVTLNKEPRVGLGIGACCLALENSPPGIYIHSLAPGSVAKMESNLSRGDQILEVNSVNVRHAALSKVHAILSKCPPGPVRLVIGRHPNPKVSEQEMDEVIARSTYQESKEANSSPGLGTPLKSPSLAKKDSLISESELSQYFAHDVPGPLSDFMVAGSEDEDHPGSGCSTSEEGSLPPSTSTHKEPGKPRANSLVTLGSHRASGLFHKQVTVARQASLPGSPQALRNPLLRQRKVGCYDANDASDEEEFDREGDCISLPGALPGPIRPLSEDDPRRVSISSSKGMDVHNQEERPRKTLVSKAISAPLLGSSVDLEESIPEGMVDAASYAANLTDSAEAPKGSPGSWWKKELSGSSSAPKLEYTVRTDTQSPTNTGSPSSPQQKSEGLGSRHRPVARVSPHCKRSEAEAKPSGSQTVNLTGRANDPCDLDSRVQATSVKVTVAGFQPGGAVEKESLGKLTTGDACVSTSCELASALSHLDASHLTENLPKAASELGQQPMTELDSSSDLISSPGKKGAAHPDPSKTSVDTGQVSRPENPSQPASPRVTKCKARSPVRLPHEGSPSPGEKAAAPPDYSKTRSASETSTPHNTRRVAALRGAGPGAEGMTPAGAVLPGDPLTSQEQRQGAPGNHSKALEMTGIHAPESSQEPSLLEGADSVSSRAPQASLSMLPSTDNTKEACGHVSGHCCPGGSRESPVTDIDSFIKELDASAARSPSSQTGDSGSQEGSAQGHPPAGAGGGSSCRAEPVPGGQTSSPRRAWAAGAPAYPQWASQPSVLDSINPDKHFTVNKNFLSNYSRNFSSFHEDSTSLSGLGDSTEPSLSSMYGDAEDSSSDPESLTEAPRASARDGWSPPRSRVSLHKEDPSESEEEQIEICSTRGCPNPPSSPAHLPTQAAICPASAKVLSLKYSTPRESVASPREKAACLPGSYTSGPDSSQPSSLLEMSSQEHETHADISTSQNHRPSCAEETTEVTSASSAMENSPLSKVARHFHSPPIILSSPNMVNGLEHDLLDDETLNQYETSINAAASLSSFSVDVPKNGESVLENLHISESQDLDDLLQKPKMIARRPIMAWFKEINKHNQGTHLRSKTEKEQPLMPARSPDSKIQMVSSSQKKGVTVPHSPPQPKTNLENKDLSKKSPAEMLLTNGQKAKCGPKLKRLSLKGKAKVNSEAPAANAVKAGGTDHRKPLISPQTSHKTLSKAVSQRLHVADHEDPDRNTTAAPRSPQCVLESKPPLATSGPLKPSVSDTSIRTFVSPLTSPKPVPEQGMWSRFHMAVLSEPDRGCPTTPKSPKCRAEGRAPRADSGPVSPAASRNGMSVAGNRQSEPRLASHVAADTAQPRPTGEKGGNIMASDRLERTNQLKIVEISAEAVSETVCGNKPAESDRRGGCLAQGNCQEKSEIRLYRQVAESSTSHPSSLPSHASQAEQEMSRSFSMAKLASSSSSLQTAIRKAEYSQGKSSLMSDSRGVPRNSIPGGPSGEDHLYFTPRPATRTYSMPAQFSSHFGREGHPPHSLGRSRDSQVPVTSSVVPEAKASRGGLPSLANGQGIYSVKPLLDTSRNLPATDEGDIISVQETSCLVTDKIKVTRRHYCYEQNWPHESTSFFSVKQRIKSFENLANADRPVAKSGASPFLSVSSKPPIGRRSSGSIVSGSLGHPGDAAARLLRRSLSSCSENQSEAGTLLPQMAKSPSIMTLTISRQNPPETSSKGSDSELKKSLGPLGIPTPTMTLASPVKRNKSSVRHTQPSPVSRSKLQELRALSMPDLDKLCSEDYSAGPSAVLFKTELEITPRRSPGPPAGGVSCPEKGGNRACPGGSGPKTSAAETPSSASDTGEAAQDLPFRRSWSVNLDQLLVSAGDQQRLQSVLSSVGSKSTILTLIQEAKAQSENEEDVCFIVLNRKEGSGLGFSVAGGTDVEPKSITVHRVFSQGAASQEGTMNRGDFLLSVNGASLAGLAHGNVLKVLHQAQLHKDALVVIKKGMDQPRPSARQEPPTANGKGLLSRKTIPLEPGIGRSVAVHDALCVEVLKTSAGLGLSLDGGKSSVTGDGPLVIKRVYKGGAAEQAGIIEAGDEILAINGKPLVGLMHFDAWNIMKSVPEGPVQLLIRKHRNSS
In short: as §1

[4] = target: T4, PDZ protein (GST-PDZ fusion) (Homo sapiens, UniProt Q12959)
T4 construct: made in house; host or cells: E. coli (DH5alpha, BL21 or JM109)
T4 sequence (Q12959 whole entry, the tested form may be a part): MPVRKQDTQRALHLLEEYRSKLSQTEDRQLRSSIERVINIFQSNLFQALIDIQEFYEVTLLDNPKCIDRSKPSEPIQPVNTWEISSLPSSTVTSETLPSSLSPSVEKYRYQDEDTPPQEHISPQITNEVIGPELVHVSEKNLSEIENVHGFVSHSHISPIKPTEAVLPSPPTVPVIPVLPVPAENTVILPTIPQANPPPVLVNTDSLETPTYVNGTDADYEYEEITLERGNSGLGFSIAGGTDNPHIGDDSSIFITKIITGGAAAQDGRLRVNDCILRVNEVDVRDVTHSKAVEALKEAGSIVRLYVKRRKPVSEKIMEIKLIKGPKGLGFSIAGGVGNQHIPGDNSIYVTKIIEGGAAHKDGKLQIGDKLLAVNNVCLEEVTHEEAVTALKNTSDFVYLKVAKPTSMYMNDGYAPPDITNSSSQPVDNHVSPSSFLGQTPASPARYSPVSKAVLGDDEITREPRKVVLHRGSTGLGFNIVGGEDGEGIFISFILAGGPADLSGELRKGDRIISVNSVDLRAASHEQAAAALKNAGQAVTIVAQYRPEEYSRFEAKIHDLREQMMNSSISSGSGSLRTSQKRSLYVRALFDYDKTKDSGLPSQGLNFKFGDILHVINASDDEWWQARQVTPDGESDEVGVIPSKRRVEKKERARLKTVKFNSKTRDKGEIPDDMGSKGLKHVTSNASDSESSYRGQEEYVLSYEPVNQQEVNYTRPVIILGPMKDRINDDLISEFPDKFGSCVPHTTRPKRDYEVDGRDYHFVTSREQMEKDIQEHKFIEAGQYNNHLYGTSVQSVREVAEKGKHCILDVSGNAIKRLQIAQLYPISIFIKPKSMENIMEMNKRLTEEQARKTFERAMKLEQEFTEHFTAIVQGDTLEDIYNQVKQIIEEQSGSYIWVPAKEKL
In short: as §1

[5] = target: T5, PDZ protein (GST-PDZ fusion) (Homo sapiens, UniProt Q13796); details: PDZ hAPXL, PDZ Domain 1
T5 construct: made in house; host or cells: E. coli (DH5alpha, BL21 or JM109)
In short: as §1

Classification [1]	Classification ([4]; PDZ DLG1, PDZ Domain 1, 2)	Compound	Classification ([3]; PDZ AIPC, PDZ Domain 1)	further results
1 (A450 nm 0-1)		CKR5_HUMAN (ERASSVYTRSTGEQEISVGL)		
		CC[C@H](C)[C@H](NC(=O)[C@H](Cc1ccc(O)cc1)NC(=O)[C@H](CC(C)C)NC(=O)[C@H](CCC(N)=O)NC(=O)[C@H](Cc1c[nH]cn1)NC(=O)[C@H](CO)NC(=O)[C@H](C)NC(=O)[C@H](CC(C)C)NC(=O)[C@@H](NC(=O)[C@H](CC(=O)O)NC(=O)[C@H](CCSC)NC(=O)[C@H](Cc1ccccc1)NC(=O)[C@@H]1CCCN1C(=O)[C@H](CCCNC(=N)N)NC(=O)[C@@H](NC(=O)[C@H](CC(C)C)NC(=O)[C@H](CC(N)=O)NC(=O)[C@H](CC(=O)O)NC(=O)[C@@H](NC(=O)[C@H](CO)NC(=O)CCCC[C@@H]1SC[C@@H]2NC(=O)N[C@@H]21)[C@@H](C)O)C(C)C)[C@@H](C)O)C(=O)O [presenilin-2] (Biotin-STDNLVRPFMDTLASHQLYI-OH; C-terminus assumed)	1 (A450 nm 0-1)	Classification ([3]; PDZ AIPC, PDZ Domain 4): 1 (A450 nm 0-1); Classification ([3]; PDZ KIAA0300, PDZ Domain 1): 1 (A450 nm 0-1); Classification ([3]; PDZ KIAA0300, PDZ Domain 2): 1 (A450 nm 0-1)
1 (A450 nm 0-1)		ARHRVTSYTSSSVNVSSNL (Biotin-ARHRVTSYTSSSVNVSSNL) [IL-8RB]		
		ISGTPTSTMVHGMTSSSSVV (Biotin-ISGTPTSTMVHGMTSSSSVV) [Clasp-2]	1 (A450 nm 0-1)	Classification ([4]; PDZ DLG1, PDZ Domain 1): 1 (A450 nm 0-1); Classification ([4]; PDZ DLG1, PDZ Domain 2): 1 (A450 nm 0-1); Classification [2]: 1 (A450 nm 0-1)
5 (A450 nm of 4 more than 2× repeated)	3 (A450 nm 2-3)	RNIEEVYVGGKQVVPFSSSV (Biotin-RNIEEVYVGGKQVVPFSSSV) [Nedasin (s-form)]		
	1 (A450 nm 0-1)	SLKPGTVLPPPPYRHRNTVV (Biotin-SLKPGTVLPPPPYRHRNTVV) [ErbB-4 receptor]		
1 (A450 nm 0-1)	2 (A450 nm 1-2)	CC(C)C[C@H](NC(=O)CNC(=O)[C@@H](NC(=O)[C@H](CO)NC(=O)[C@H](CC(N)=O)NC(=O)[C@H](Cc1ccccc1)NC(=O)CNC(=O)[C@H](C)NC(=O)[C@H](C)NC(=O)[C@H](Cc1ccccc1)NC(=O)[C@@H](NC(=O)CCCC[C@@H]1SC[C@@H]2NC(=O)N[C@@H]21)[C@@H](C)O)[C@@H](C)O)C(=O)N1CCC[C@H]1C(=O)N[C@@H](Cc1c[nH]cn1)C(=O)N[C@@H](CO)C(=O)N[C@H](C(=O)N[C@H](C(=O)N[C@@H](CCCNC(=N)N)C(=O)N[C@H](C(=O)O)C(C)C)[C@@H](C)O)[C@@H](C)O [Neuroligin] (Biotin-TFAAGFNSTGLPHSTTRV-OH; C-terminus assumed)		
1 (A450 nm 0-1)		ELLQFCRTPNPALKNGQYWV (Biotin-ELLQFCRTPNPALKNGQYWV)	5 (A450 nm of 4 more than 2× repeated)	Classification [5]: 3 (A450 nm 2-3); Classification ([3]; PDZ KIAA0300, PDZ Domain 1): 2 (A450 nm 1-2); Classification [2]: 1 (A450 nm 0-1)
		ALVLIAFCIIRRRPSAYQAL (Biotin-ALVLIAFCIIRRRPSAYQAL) [CD68]		Classification [5]: 2 (A450 nm 1-2)
1 (A450 nm 0-1)	1 (A450 nm 0-1)	CC[C@H](C)[C@H](NC(=O)[C@H](Cc1c[nH]cn1)NC(=O)[C@H](C)NC(=O)[C@H](C)NC(=O)[C@H](CO)NC(=O)[C@@H]1CCCN1C(=O)[C@H](CCCNC(=N)N)NC(=O)[C@H](CC(=O)O)NC(=O)[C@H](CCCCN)NC(=O)[C@@H]1CCCN1C(=O)[C@H](CC(=O)O)NC(=O)[C@H](CCC(=O)O)NC(=O)CCCC[C@@H]1SC[C@@H]2NC(=O)N[C@@H]21)C(=O)N[C@H](C(=O)N[C@@H](CCC(=O)O)C(=O)N[C@@H](C)C(=O)N[C@@H](CC(C)C)C(=O)N[C@@H](CCC(=O)O)C(=O)N[C@H](C(=O)N[C@@H](CC(=O)O)C(=O)N[C@H](C(=O)O)C(C)C)[C@@H](C)O)C(C)C [PDZ-binding kinase (PBK)] (Biotin-EDPKDRPSAAHIVEALETDV-OH; C-terminus assumed)		
		A2AC_HUMAN (Modified) (Biotin-DFRPSFKHILFRRARRGFRQ; not fully specified)		Classification [5]: 3 (A450 nm 2-3)
		CC[C@H](C)[C@H](NC(=O)[C@H](C)NC(=O)[C@H](CC(C)C)NC(=O)[C@H](Cc1c[nH]c2ccccc12)NC(=O)[C@H](Cc1c[nH]cn1)NC(=O)[C@H](CCC(N)=O)NC(=O)[C@H](CC(C)C)NC(=O)[C@H](CCC(N)=O)NC(=O)[C@H](Cc1ccccc1)NC(=O)[C@H](CCC(N)=O)NC(=O)[C@H](CCCNC(=N)N)NC(=O)[C@@H](NC(=O)[C@H](CC(=O)O)NC(=O)[C@H](CCCNC(=N)N)NC(=O)[C@H](CCC(N)=O)NC(=O)[C@H](C)NC(=O)[C@@H](NC(=O)[C@H](CC(C)C)NC(=O)[C@H](Cc1c[nH]cn1)NC(=O)[C@H](Cc1c[nH]cn1)NC(=O)CCCC[C@@H]1SC[C@@H]2NC(=O)N[C@@H]21)C(C)C)[C@@H](C)CC)C(=O)O [noradrenaline transporter] (Biotin-HHLVAQRDIRQFQLQHWLAI-OH; C-terminus assumed)	2 (A450 nm 1-2)	
1 (A450 nm 0-1)	1 (A450 nm 0-1)	GPVPGEPAKPKTSAHHATFV (Biotin-GPVPGEPAKPKTSAHHATFV)		

Compound	Classification [1]	Classification ([4]; PDZ DLG1, PDZ Domain 1, 2)	Classification ([3]; PDZ AIPC, PDZ Domain 1)	further results
CC[C@H](C)[C@H](NC(=O)[C@H](CC(=O)O)NC(=O)[C@H](CCC(=O)O)NC(=O)[C@H](CCCNC(=N)N)NC(=O)[C@@H](NC(=O)CCCC[C@@H]1SC[C@@H]2NC(=O)N[C@@H]21)[C@@H](C)O)C(=O)N[C@@H](Cc1ccc(O)cc1)C(=O)N[C@H](C(=O)N[C@@H](CC(N)=O)C(=O)N[C@@H](Cc1ccc(O)cc1)C(=O)N1CCC[C@H]1C(=O)N[C@H](C(=O)N[C@@H](Cc1ccccc1)C(=O)N[C@@H](CO)C(=O)N[C@@H](CCCNC(=N)N)C(=O)N[C@@H](CCCNC(=N)N)C(=O)N1CCC[C@H]1C(=O)N[C@@H](CCCCN)C(=O)N[C@H](C(=O)N[C@@H](CCCNC(=N)N)C(=O)N[C@H](C(=O)O)C(C)C)[C@@H](C)O)[C@@H](C)O)C(C)C [DNAM-1] (Biotin-TREDIYVNYPTFSRRPKTRV-OH; C-terminus assumed)	1 (A450 nm 0-1)			Classification [2]: 1 (A450 nm 0-1)
CC[C@H](C)[C@H](NC(=O)[C@H](CCC(N)=O)NC(=O)[C@@H](NC(=O)[C@H](Cc1c[nH]cn1)NC(=O)[C@H](CCC(N)=O)NC(=O)[C@H](CC(=O)O)NC(=O)[C@H](CCC(=O)O)NC(=O)[C@H](CC(=O)O)NC(=O)[C@H](Cc1ccccc1)NC(=O)[C@@H]1CCCN1C(=O)[C@H](CCC(=O)O)NC(=O)[C@H](CC(N)=O)NC(=O)[C@H](CCC(=O)O)NC(=O)[C@@H]1CCCN1C(=O)[C@H](CC(=O)O)NC(=O)[C@H](CO)NC(=O)[C@H](CC(=O)O)NC(=O)CCCC[C@@H]1SC[C@@H]2NC(=O)N[C@@H]21)[C@@H](C)O)C(=O)N[C@H](C(=O)N[C@@H](CCCCN)C(=O)N[C@H](C(=O)O)C(C)C)[C@@H](C)O [PTEN]	2 (A450 nm 1-2)		1 (A450 nm 0-1)	
